Data taken from patent US12697350B2, “Methods and compositions for treating a premature termination codon-mediated disorder” (Tevard Biosciences, Inc., priority 2019, dated 2026).

Columns and labels:
EGFP-R96X-TGA reporter [1] = test: 100 nt 5′ leader sequence library with ArgTCA suppressor tRNA #115, EGFP-R96X-TGA reporter, Flp-In-293 cells (FIGS. 28, 29, 32); type: cell-based, human
Excerpt: FIG. 27 is a schematic representation of the constructs used to test the impact of a 5′ leader sequence on the read-through of a premature termination codon (PTC) by a suppressor tRNA. Constructs contain (i) a 100 bp 5′ leader sequence derived from genomic DNA located upstream of tRNA genes that are highly expressed in HEK293 cells, (ii) a single copy of either the ArgTCA suppressor tRNA #115 (SEQ ID NO: 18) or the GlnTTA suppressor tRNA #163 (SEQ ID NO: 45), and (iii) an RNA polymerase III termination signal (“Term”).
FIG. 28 is a graph depicting the readthrough activity of the indicated ArgTCA suppressor tRNA expression constructs as measured by flow cytometry in Flp-In-293 cells at ~24 hours post transfection. […]
FIG. 29 is a graph depicting the readthrough activity of the indicated ArgTCA suppressor tRNA expression constructs as measured by flow cytometry in Flp-In-293 cells at ~24 hours post transfection. […]
The leader sequences in combination with the ArgTCA suppressor tRNA #115 (SEQ ID NO: 18) or the GlnTTA suppressor tRNA #163 (SEQ ID NO: 45) were tested for PTC readthrough activity by flow cytometry in cell lines co-transfected with an EGFP-R96X-TGA reporter (SEQ ID NO: 31) for ArgTCA constructs or an EGFP-Q69X-TAA reporter (SEQ ID NO: 175) for GlnTTA constructs.

EGFP-R96X-TGA reporter [2] = test: Flanking sequence length (TABLE 11 vectors Flank300/20/10/0), EGFP-R96X-TGA reporter, Neuro-2a cells (FIGS. 26A-B); type: cell-based, mouse; details: single copy, Flank0 vector (random sequence 5′ to tRNA), ~24 hours post transfection
Experimental: “GFP-PTC” indicates cells transfected with the EGFP-R96X-TGA reporter alone (SEQ ID NO: 31), “GFP” indicates cells transfected with a version of the EGFP reporter that lacks a PTC. Readthrough activity was measured by flow cytometry at ~24 hours post transfection. Data are presented as histograms displaying the frequency distribution of the data versus fluorescence intensity for cells expressing EGFP above background.
Expression vectors were generated that encoded an EGFP-R96X-TGA reporter (SEQ ID NO: 31, as described in Example 1) and a single copy of the ArgTCA suppressor tRNA #115 (tRNA-Arg-TCT-2-1-TCA-SUP_no intron, SEQ ID NO: 18, as described in Example 1). The expression vectors included sequences immediately 5′ and 3′ to the tRNA coding sequence that were in each instance derived from the genomic DNA that is 5′ and 3′ to the mouse tRNA-Arg-TCG-1-1 gene but were of varying length.
The expression vectors in TABLE 11 were tested for PTC readthrough activity by flow cytometry in Neuro-2a cells. Transfections were performed using the Lipofectamine 3000 Transfection Reagent according to the manufacturer's protocol.

B1: tRNA-Arg-TCT-2-1-TCA-SUP_no intron (nucleic acid)
chain: GGCTCCGTGGCGCAATGGATAGCGCATTGGACTTCAAATTCAAAGGTTCCGGGTTCGAGTCCCGGCGGAGTCG
modifications: chemistry not fully specified
**Q.** Which “readthrough activity when combined with the identified leader sequences” value (EGFP-R96X-TGA reporter [1]) does the source give for B1 here?
**A.** showed high readthrough activity

**Q.** And the “suppressor tRNA activity with random 5′ leader sequence” value (EGFP-R96X-TGA reporter [2])?
**A.** exhibits activity even with a random 5′ leader sequence
